Patent publication US20190271021A1 (Hoffmann-La Roche, published 2019)

Key:
[1] = molecular target: T1, human TrkB on CHO cells (CHO-K1-hTrkB/pSRE-Luc) (human, UniProt Q16620 32-822); experiment: cell-based or functional assay
[2] = molecular target: T2, TrkB-Fc fusion (R&D Systems) (UniProt Q16620 32-430); experiment: TrkB ELISA, plate coated with TrkB-Fc, detection with anti-BDNF antibody
T2 construct: the ELISA paragraph says only TrkB-Fc fusion (R&D Systems); also called Human Fc-tagged TrkB; not shown: Fc part of the bought fusion
T2 sequence (Q16620 32-430 limits assumed): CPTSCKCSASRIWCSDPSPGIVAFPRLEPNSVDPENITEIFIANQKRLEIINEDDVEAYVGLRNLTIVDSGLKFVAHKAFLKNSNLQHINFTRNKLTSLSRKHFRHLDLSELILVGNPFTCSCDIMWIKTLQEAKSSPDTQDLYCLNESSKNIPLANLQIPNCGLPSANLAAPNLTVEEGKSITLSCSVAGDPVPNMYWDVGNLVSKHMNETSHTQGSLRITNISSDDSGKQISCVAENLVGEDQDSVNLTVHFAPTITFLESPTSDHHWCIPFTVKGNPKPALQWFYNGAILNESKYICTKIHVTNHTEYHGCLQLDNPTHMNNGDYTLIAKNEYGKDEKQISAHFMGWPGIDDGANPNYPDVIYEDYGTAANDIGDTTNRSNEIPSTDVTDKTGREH
Method: The binding properties of BDNF-containing fusion proteins were determined with a TrkB ELISA. Maxisorb plates were coated with 1 μg/mL of a TrkB-Fc fusion (R&D Systems) in PBS overnight at 4° C. After blocking the plate with PBSTC (PBS with 0.05% Tween-20 and 2% Chicken serum (Gibco)) for 1 h at RT and three washes with PBST, BDNF-containing fusion proteins or BDNF alone were added to the wells at concentrations of 15 to 500 ng/mL in PBSTC and incubated for 2 h at RT. After six washes, the wells were incubated with mouse-anti-BDNF antibody (clone 4F11.1A1, 1 μg/mL in PBSTC) and, after further washes, with anti-mouse-HRP antibody (1:10000 in PBSTC), both for 1 h at RT. After three washes with PBST, HRP activity was detected using ABTS substrate and photometric quantification at a wavelength of 492 nm.

[3] = molecular target: T1, human TrkB on CHO cells …; experiment: cell-based or functional assay; remark: listed apart in the source

T1 sequence (Q16620 32-822): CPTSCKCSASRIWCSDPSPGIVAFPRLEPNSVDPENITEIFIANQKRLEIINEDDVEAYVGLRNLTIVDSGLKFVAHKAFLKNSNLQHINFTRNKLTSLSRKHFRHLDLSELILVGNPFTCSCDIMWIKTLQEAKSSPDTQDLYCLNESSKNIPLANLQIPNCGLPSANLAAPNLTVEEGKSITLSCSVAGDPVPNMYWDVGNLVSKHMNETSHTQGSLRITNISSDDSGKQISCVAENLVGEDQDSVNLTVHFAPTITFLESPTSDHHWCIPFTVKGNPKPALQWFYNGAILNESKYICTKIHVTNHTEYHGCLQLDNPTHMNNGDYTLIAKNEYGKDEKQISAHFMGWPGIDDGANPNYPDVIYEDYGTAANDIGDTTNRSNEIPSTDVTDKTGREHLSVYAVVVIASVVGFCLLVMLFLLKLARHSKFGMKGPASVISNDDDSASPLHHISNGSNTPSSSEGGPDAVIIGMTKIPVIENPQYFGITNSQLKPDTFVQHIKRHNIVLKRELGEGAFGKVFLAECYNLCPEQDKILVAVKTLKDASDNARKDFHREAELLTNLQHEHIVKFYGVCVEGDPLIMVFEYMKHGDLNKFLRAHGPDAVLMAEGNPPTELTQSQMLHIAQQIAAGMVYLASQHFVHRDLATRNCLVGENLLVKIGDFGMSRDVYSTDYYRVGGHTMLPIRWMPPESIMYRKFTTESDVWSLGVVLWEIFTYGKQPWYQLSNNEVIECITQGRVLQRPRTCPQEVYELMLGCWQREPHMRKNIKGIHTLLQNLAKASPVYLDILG

Row | Binder | relative BDNF activity in TrkB luciferase assay, EC50 [%] [1] [%] | EC50 [2] [nM] | BDNF activity in TrkBluciferase assay, EC50 [% or nM] [3] [nM]
1 | wild-type BDNF (E. coli) (ligand, No tag, no linker, RGR not deleted; also called wt-BDNF; non-glycosylated mature wild-type BDNF) HSDPARRGELSVCDSISEWVTAADKKTAVDMSGGTVTVLEKVPVSKGQLKQYFYETKCNPMGYTKEGCRGIDKRHWNSQCRTTQSYVRALTMDSKKRIGWRFIRIDTSCVCTLTIKRGR | 60 | 5.7 | 0.44
2 | pre-pro-BDNF(-RGD)_(G4S)6GG_VH<IGF-1R>-CH1-His6 with anti-IGF-1R antibody light chain (other, BDNF part of the entry is the pre-pro precursor) heavy: HSDPARRGELSVCDSISEWVTAADKKTAVDMSGGTVTVLEKVPVSKGQLKQYFYETKCNPMGYTKEGCRGIDKRHWNSQCRTTQSYVRALTMDSKKRIGWRFIRIDTSCVCTLTIKGGGGSGGGGSGGGGSGGGGSGGGGSGGGGSGGQVELVESGGGVVQPGRSQRLSCAASGFTFSSYGMHWVRQAPGKGLEWVAIIWFDGSSTYYADSVRGRFTISRDNSKNTLYLQMNSLRAEDTAVYFCARELGRRYFDLWGRGTLVSVSSASTKGPSVFPLAPSSKSTSGGTAALGCLVKDYFPEPVTVSWNSGALTSGVHTFPAVLQSSGLYSLSSVVTVPSSSLGTQTYICNVNHKPSNTKVDKKVGSGHHHHHH light: not shown | – | 18.5 | –
3 | pre-pro-BDNF(-RGD)_(G4S)4GG_VH<IGF-1R>-CH1-His6 with anti-IGF-1R antibody light chain (other, BDNF part of the entry is the pre-pro precursor) heavy: HSDPARRGELSVCDSISEWVTAADKKTAVDMSGGTVTVLEKVPVSKGQLKQYFYETKCNPMGYTKEGCRGIDKRHWNSQCRTTQSYVRALTMDSKKRIGWRFIRIDTSCVCTLTIKGGGGSGGGGSGGGGSGGGGSGGQVELVESGGGVVQPGRSQRLSCAASGFTFSSYGMHWVRQAPGKGLEWVAIIWFDGSSTYYADSVRGRFTISRDNSKNTLYLQMNSLRAEDTAVYFCARELGRRYFDLWGRGTLVSVSSASTKGPSVFPLAPSSKSTSGGTAALGCLVKDYFPEPVTVSWNSGALTSGVHTFPAVLQSSGLYSLSSVVTVPSSSLGTQTYICNVNHKPSNTKVDKKVGSGHHHHHH light: not shown | – | 13.5 | –

The remaining binders from weak to strong by EC50 [2], led by results:

Row | relative BDNF activity in TrkB luciferase assay, EC50 [%] [1] [%] | EC50 [2] [nM] | BDNF activity in TrkBluciferase assay, EC50 [% or nM] [3] [nM] | Binder
4 | – | 17 | – | pre-pro-BDNF(-RGD)_(G4S)2GG_VH<IGF-1R>-CH1-His6 with anti-IGF-1R antibody light chain (other, BDNF part of the entry is the pre-pro precursor) heavy: HSDPARRGELSVCDSISEWVTAADKKTAVDMSGGTVTVLEKVPVSKGQLKQYFYETKCNPMGYTKEGCRGIDKRHWNSQCRTTQSYVRALTMDSKKRIGWRFIRIDTSCVCTLTIKGGGGSGGGGSGGQVELVESGGGVVQPGRSQRLSCAASGFTFSSYGMHWVRQAPGKGLEWVAIIWFDGSSTYYADSVRGRFTISRDNSKNTLYLQMNSLRAEDTAVYFCARELGRRYFDLWGRGTLVSVSSASTKGPSVFPLAPSSKSTSGGTAALGCLVKDYFPEPVTVSWNSGALTSGVHTFPAVLQSSGLYSLSSVVTVPSSSLGTQTYICNVNHKPSNTKVDKKVGSGHHHHHH light: not shown
5 | – | 8.9 | – | pre-pro-BDNF(-RGR)-T7-His6 (ligand, Entry is the pre-pro precursor as expressed (HEK293); values normalized to maturated BDNF; also called pp-BDNF; parental construct) HSDPARRGELSVCDSISEWVTAADKKTAVDMSGGTVTVLEKVPVSKGQLKQYFYETKCNPMGYTKEGCRGIDKRHWNSQCRTTQSYVRALTMDSKKRIGWRFIRIDTSCVCTLTIKGSGMASMTGGQQMGHHHHHH
6 | – | 6.1 | – | complex of pre-pro-BDNF(-RGD)_(G4S)2GG_VH<IGF-1R>-CH1-His6, anti-IGF-1R antibody light chain and not-fused pre-pro-BDNF(-RGR)-T7-His6 (other, BDNF-Fab fusion co-expressed with light chain and not-fused BDNF; BDNF entries are pre-pro precursors) heavy: HSDPARRGELSVCDSISEWVTAADKKTAVDMSGGTVTVLEKVPVSKGQLKQYFYETKCNPMGYTKEGCRGIDKRHWNSQCRTTQSYVRALTMDSKKRIGWRFIRIDTSCVCTLTIKGGGGSGGGGSGGQVELVESGGGVVQPGRSQRLSCAASGFTFSSYGMHWVRQAPGKGLEWVAIIWFDGSSTYYADSVRGRFTISRDNSKNTLYLQMNSLRAEDTAVYFCARELGRRYFDLWGRGTLVSVSSASTKGPSVFPLAPSSKSTSGGTAALGCLVKDYFPEPVTVSWNSGALTSGVHTFPAVLQSSGLYSLSSVVTVPSSSLGTQTYICNVNHKPSNTKVDKKVGSGHHHHHH light: not shown HSDPARRGELSVCDSISEWVTAADKKTAVDMSGGTVTVLEKVPVSKGQLKQYFYETKCNPMGYTKEGCRGIDKRHWNSQCRTTQSYVRALTMDSKKRIGWRFIRIDTSCVCTLTIKGSGMASMTGGQQMGHHHHHH
